{"source": "paper PMC9949068", "about": "(bioRxiv, 2023)", "proteins": {"B1": {"name": "human GLS2 (K253A), residues 38-602 (enzyme)", "chain": "HHLSEAAAQGRETPHSHQPQHQDHDSSESGMLSRLGDLLFYTIAEGQERIPIHKFTTALKATGLQTSDPRLRDCMSEMHRVVQESSSGGLLDRDLFRKCVSSNIVLLTQAFRKKFVIPDFEEFTGHVDRIFEDVKELTGGKVAAYIPQLAKSNPDLWGVSLCTVDGQRHSVGHTKIPFCLQSCVKPLTYAISISTLGTDYVHKFVGKEPSGLRYNALSLNEEGIPHNPMVNAGAIVVSSLIKMDCNKAEKFDFVLQYLNKMAGNEYMGFSNATFQSEKETGDRNYAIGYYLKEKKCFPKGVDMMAALDLYFQLCSVEVTCESGSVMAATLANGGICPITGESVLSAEAVRNTLSLMHSCGMYDFSGQFAFHVGLPAKSAVSGAILLVVPNVMGMMCLSPPLDKLGNSHRGTSFCQKLVSLFNFHNYDNLRHCARKLDPRREGAEIRNKTVVNLLFAAYSGDVSALRRFALSAMDMEQKDYDSRTALHVAAAEGHIEVVKFLIEACKVNPFAKDRWGNIPLDDAVQFNHLEVVKLLQDYQDSYTLSETQAEAAAEALSKENLESMV"}, "B2": {"name": "human GLS2 (N308A), residues 38-602 (enzyme)", "chain": "HHLSEAAAQGRETPHSHQPQHQDHDSSESGMLSRLGDLLFYTIAEGQERIPIHKFTTALKATGLQTSDPRLRDCMSEMHRVVQESSSGGLLDRDLFRKCVSSNIVLLTQAFRKKFVIPDFEEFTGHVDRIFEDVKELTGGKVAAYIPQLAKSNPDLWGVSLCTVDGQRHSVGHTKIPFCLQSCVKPLTYAISISTLGTDYVHKFVGKEPSGLRYNKLSLNEEGIPHNPMVNAGAIVVSSLIKMDCNKAEKFDFVLQYLNKMAGNEYMGFSAATFQSEKETGDRNYAIGYYLKEKKCFPKGVDMMAALDLYFQLCSVEVTCESGSVMAATLANGGICPITGESVLSAEAVRNTLSLMHSCGMYDFSGQFAFHVGLPAKSAVSGAILLVVPNVMGMMCLSPPLDKLGNSHRGTSFCQKLVSLFNFHNYDNLRHCARKLDPRREGAEIRNKTVVNLLFAAYSGDVSALRRFALSAMDMEQKDYDSRTALHVAAAEGHIEVVKFLIEACKVNPFAKDRWGNIPLDDAVQFNHLEVVKLLQDYQDSYTLSETQAEAAAEALSKENLESMV"}}, "key": {"cryo-EM structure": {"target": "the molecule itself", "experiment": "cryo-EM structure"}, "negative stain EM": {"target": "the molecule itself", "experiment": "negative stain EM"}}}
{"protein": "B1", "values": [{"measurement": "binding result", "setting": "cryo-EM structure", "result": "binds"}]}
{"protein": "B2", "values": [{"measurement": "binding result", "setting": "negative stain EM", "result": "binds"}]}
